# Data published in paper PMC6055799.
# Molecular target: GFP-RTN1 (reticulon RTN1 fused to GFP; FRET donor) (Arabidopsis)
# Assay: FRET or BRET; FRET-FLIM (two-photon microscope): donor GFP-RTN1 and RFP-tagged acceptor coinfiltrated into N. tabacum leaf epidermal cells, measured after 48 h in low-mobility ER continuous with the nuclear envelope; donor lifetime compared with GFP-RTN1 alone
row,reduction of the donor (GFP-RTN1) fluorescence lifetime,Molecule
1,0.2 ns,"AtLNP2-RFP (Arabidopsis Lunapark 2, splice variant AtLNP2.1, fused to RFP; FRET acceptor) (natural protein)"
2,0.2 ns,AtLNP1-RFP (Arabidopsis Lunapark 1 fused to RFP; FRET acceptor) (natural protein) MAVGEKEHEGTVVESGGEKNDSAVVLSASGEKKTTKRKGLFSRLWNAIFRVRGDDFEKRLKNISKEEATVRNRMKRRSITRRNFIRNLIAFSVFFEVIAVSYAIMTTRDEDLDWKLRSFRILPMFLLPAVAFLLYSSLVGFWRMCDRRDQHTLEKLQAEMLGKINELKERTNYYITQQLIQRYDPDPAAKAAAATVLASKLGAESGLKVFVGDESQLEPTAGKNNAKHSGGLRNRKQTNTRGNSAETTPIHHSDNESNHSGTSERITGTEQNQQMVFEHYNPQEYAAHDGSWISRIAALLVGEDPSQSYALICGNCRMHNGLARKEDFPYITYYCPHCRALNKPKHSEEHSLIAPADTLPKVSLKPMESEVINSSSSTSERGNSPIPLLHTPEIVEEVPETAENETPN
